The values that follow come from publication PMC12578645.

This test has as its target gB-Ecto.H516P (HSV-1 glycoprotein B ectodomain with H516P and an appended foldon; postfusion) (HSV-1 KOS strain) (UniProt P06437). The test can be described thus: cryo-EM structure.

Broadly, the stoichiometry N is the number of molecules, sites or subunits per partner or assembly. On to “gB-Ecto.H516P (HSV-1 glycoprotein B ectodomain with H516P and an appended foldon; postfusion) (from UniProt P06437 31-728) (domain or fragment)”, for which the stoichiometry N amounted to 3.
